Holding throughout (assay): ELISA; host protein coated on microtiter wells; recombinant protein varied from 0 to 2 μM; absorbance with BSA subtracted; apparent Kd from the half-maximal binding concentration (GraphPad Prism 6)
What all share (settings): both partners purified
Background: ELISA stands for enzyme-linked immunosorbent assay.

Assay [1] concerns the target T1, collagen Type IV (purified from basement membrane of Engelbreth-Holm-Swarm mouse sarcoma) (mouse, UniProt P02463 173-1669; P08122 184-1707).
T1 construct: collagen type IV alpha 1 chain, mouse; collagen type IV alpha 2 chain, mouse; also called collagen IV; source: bought: Sigma-Aldrich (purified from basement membrane of Engelbreth-Holm-Swarm mouse sarcoma)

For assay [2], the target named is T2, laminin (purified from basement membrane of Engelbreth-Holm-Swarm mouse sarcoma) (mouse, UniProt P19137 25-3083; P02469 22-1786; P02468 34-1607).
T2 construct: source: bought: Sigma-Aldrich (purified from basement membrane of Engelbreth-Holm-Swarm mouse sarcoma)

Assay [3] addresses T3, elastin (purified from bovine neck ligament) (bovine, UniProt P04985 27-747).
T3 construct: elastin, bovine, purified from neck ligament; an insoluble protein; Insoluble material of tissue; used coated on wells (ELISA) and as a solid in the co-sedimentation; also called insoluble elastin; source: bought: Sigma-Aldrich (purified from bovine neck ligament)
T3 sequence (looked up): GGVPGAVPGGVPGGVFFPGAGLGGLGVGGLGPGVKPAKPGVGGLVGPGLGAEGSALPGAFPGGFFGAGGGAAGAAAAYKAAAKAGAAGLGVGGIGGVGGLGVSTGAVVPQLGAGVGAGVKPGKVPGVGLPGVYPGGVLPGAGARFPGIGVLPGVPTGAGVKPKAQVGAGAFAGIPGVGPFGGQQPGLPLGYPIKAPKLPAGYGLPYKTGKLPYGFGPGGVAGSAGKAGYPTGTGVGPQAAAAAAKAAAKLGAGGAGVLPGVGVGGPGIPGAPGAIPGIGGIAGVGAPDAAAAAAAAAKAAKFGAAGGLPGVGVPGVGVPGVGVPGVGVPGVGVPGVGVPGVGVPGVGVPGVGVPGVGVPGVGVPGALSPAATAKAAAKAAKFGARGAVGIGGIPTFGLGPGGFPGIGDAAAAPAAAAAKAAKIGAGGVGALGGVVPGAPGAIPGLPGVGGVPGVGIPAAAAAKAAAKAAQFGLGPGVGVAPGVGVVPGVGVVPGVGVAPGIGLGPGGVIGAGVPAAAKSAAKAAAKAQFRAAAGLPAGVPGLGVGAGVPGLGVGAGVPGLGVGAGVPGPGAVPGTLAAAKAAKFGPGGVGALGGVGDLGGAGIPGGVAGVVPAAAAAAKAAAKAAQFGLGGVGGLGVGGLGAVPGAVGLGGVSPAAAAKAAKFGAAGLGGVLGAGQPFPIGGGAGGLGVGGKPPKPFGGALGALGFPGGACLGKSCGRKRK

Assay [4] concerns the target T4, fibrinogen (purified from human plasma) (human, UniProt P02671-2 20-644; P02675 31-491; P02679-2 27-437).
T4 construct: fibrinogen alpha chain, human; fibrinogen beta chain, human; fibrinogen gamma chain, human; source: bought: Sigma-Aldrich (purified from human plasma)
T4 sequence (looked up) 1: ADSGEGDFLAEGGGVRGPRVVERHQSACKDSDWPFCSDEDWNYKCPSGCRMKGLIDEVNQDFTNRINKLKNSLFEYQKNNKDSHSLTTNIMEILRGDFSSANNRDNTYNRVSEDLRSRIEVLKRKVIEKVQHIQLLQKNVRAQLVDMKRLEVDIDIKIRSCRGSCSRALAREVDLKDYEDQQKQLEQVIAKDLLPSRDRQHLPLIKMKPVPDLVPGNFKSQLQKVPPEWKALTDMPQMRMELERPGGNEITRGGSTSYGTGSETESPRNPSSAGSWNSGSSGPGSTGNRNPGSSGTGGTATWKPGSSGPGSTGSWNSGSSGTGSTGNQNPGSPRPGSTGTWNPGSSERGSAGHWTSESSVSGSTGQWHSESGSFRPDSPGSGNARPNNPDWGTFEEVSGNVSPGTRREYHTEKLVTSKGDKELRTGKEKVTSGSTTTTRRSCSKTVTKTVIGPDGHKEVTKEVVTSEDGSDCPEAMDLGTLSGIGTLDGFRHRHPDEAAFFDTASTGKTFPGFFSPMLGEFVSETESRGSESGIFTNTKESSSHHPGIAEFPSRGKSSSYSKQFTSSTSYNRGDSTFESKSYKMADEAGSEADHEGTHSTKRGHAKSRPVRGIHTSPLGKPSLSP
T4 sequence (looked up) 2: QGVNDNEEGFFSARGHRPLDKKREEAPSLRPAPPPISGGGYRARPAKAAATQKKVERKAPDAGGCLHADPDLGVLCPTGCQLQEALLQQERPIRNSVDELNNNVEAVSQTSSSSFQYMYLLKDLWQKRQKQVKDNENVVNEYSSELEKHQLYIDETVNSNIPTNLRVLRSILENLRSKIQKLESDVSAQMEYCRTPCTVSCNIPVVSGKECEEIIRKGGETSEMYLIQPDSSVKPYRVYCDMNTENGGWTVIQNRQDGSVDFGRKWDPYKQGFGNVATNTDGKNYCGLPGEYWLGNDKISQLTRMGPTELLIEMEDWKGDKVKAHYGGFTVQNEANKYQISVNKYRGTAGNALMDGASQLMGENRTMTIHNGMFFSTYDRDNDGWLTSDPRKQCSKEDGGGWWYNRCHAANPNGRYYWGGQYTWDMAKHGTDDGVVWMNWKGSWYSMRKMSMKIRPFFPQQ
T4 sequence (looked up) 3: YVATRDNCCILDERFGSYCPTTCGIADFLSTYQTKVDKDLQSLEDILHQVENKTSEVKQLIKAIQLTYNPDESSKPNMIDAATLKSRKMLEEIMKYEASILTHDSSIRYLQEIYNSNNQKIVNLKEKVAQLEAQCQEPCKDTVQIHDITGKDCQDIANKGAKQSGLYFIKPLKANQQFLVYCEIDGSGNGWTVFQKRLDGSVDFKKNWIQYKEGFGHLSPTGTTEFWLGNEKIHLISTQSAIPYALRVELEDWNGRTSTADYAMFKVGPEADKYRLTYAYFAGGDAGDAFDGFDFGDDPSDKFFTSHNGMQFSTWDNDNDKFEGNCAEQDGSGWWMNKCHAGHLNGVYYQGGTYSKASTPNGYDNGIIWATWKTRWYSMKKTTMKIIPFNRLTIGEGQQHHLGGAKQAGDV

Assay [5] addresses T5, collagen Type I (purified from rat tail) (rat, UniProt P02454 152-1207; P02466 86-1125).
T5 construct: collagen type I alpha 1 chain, rat; collagen type I alpha 2 chain, rat; also called collagen I; source: bought: Sigma-Aldrich (purified from rat tail)

T1 sequence (P02463 173-1669, chain 1 of 2): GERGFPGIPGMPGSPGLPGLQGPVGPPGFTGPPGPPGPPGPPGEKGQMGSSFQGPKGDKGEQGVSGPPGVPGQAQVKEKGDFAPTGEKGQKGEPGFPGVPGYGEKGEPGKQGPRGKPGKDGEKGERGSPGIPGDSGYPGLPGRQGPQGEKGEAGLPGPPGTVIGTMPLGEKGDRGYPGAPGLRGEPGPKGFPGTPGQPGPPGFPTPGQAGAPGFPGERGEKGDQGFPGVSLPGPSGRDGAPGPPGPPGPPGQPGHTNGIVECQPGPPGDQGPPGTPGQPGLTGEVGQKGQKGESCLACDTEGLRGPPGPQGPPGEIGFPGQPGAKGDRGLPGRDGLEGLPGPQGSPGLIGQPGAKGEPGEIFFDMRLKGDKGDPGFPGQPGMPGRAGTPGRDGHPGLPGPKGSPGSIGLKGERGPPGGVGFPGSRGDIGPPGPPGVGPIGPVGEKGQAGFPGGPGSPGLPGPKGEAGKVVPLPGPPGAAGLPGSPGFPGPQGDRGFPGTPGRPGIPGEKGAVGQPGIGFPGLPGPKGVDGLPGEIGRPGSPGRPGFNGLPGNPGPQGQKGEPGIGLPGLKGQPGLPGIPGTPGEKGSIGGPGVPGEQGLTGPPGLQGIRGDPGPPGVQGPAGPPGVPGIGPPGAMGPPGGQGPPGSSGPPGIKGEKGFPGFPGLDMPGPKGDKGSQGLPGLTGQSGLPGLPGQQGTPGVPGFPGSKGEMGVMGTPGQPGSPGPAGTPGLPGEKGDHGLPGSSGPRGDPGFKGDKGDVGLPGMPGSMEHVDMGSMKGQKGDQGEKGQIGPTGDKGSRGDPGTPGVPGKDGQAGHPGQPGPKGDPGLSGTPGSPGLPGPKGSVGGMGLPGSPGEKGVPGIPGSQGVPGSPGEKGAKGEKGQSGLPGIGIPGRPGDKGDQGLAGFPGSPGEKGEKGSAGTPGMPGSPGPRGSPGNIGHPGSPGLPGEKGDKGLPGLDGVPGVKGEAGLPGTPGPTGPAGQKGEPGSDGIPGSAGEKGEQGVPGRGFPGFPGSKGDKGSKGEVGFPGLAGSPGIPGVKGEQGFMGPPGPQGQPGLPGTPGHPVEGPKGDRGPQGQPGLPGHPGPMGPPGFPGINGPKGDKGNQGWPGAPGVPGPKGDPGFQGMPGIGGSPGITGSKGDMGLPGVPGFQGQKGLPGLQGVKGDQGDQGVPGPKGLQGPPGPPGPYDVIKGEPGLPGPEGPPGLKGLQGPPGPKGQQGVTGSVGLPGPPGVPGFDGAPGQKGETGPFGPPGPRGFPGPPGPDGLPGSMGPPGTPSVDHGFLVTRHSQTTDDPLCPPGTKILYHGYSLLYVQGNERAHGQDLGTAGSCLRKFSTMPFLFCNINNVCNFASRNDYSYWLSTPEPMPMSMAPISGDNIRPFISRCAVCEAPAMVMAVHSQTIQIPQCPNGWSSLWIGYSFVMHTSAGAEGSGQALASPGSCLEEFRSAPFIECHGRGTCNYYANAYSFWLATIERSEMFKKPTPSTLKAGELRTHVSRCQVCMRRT
T1 sequence (P08122 184-1707, chain 2 of 2): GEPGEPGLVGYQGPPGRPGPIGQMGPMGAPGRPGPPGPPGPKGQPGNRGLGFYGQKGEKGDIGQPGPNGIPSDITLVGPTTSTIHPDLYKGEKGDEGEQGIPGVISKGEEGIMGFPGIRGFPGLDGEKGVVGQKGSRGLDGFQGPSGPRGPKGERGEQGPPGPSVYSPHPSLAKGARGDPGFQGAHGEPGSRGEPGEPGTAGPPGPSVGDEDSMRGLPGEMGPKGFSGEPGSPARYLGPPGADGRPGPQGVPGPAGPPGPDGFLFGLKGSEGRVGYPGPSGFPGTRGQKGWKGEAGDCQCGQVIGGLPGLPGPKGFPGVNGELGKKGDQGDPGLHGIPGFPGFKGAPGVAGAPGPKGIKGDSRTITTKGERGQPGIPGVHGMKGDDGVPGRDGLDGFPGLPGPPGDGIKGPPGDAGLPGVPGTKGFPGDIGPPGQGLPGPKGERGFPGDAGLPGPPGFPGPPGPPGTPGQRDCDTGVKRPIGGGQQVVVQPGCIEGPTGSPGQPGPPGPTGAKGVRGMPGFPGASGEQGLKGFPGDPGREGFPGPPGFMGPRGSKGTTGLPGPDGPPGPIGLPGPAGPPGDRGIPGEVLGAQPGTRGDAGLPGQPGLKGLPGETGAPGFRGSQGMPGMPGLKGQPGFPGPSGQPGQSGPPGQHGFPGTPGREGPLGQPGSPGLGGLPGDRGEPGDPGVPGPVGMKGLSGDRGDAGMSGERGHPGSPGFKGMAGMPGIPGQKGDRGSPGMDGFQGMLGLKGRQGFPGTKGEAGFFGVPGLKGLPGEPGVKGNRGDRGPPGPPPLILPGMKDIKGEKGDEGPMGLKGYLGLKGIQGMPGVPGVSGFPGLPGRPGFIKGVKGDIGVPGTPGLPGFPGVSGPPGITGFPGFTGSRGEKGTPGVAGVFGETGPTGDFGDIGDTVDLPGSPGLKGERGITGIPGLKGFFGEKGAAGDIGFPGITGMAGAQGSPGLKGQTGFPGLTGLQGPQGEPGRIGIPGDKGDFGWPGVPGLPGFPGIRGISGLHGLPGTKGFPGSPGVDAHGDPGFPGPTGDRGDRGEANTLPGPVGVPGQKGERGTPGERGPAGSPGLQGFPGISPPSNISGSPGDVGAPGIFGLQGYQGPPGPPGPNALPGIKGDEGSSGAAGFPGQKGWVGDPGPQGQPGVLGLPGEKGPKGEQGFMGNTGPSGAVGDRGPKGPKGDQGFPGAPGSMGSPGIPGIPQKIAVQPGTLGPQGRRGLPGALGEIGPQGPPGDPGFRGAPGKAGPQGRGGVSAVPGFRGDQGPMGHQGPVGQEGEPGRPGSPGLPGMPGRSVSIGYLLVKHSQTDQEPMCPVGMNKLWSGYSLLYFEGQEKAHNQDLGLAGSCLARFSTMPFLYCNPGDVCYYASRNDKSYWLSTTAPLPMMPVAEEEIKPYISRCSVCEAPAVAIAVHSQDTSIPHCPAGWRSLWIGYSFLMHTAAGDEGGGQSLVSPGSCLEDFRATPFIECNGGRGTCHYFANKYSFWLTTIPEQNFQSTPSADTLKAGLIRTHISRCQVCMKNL
T5 sequence (P02454 152-1207, chain 1 of 2): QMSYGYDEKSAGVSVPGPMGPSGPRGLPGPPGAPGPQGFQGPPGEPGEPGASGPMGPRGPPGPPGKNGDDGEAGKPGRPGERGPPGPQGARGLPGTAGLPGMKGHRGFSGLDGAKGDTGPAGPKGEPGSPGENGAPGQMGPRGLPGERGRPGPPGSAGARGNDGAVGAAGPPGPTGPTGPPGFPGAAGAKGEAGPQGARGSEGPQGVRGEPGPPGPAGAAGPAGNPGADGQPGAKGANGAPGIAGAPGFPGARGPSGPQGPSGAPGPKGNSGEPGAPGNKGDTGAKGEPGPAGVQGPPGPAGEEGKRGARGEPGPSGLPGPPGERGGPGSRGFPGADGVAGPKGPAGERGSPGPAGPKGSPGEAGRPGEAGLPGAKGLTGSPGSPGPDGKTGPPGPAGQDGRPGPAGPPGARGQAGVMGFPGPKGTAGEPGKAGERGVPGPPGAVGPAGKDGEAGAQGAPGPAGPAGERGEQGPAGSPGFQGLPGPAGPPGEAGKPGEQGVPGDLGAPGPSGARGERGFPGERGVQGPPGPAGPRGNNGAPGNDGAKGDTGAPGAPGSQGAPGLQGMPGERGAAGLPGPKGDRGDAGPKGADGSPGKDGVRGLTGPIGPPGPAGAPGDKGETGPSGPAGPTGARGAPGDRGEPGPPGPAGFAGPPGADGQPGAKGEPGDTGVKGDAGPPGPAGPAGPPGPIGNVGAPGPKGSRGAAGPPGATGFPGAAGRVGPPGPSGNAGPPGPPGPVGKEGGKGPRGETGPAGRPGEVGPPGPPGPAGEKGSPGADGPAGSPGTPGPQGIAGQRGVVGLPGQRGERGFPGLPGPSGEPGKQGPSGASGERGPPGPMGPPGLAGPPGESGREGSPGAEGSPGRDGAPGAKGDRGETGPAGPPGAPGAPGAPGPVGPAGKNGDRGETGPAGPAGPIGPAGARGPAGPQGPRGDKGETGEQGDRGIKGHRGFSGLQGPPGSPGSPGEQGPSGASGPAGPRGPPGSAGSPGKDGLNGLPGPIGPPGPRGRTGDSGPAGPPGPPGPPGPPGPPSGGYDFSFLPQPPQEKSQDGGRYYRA
T5 sequence (P02466 86-1125, chain 2 of 2): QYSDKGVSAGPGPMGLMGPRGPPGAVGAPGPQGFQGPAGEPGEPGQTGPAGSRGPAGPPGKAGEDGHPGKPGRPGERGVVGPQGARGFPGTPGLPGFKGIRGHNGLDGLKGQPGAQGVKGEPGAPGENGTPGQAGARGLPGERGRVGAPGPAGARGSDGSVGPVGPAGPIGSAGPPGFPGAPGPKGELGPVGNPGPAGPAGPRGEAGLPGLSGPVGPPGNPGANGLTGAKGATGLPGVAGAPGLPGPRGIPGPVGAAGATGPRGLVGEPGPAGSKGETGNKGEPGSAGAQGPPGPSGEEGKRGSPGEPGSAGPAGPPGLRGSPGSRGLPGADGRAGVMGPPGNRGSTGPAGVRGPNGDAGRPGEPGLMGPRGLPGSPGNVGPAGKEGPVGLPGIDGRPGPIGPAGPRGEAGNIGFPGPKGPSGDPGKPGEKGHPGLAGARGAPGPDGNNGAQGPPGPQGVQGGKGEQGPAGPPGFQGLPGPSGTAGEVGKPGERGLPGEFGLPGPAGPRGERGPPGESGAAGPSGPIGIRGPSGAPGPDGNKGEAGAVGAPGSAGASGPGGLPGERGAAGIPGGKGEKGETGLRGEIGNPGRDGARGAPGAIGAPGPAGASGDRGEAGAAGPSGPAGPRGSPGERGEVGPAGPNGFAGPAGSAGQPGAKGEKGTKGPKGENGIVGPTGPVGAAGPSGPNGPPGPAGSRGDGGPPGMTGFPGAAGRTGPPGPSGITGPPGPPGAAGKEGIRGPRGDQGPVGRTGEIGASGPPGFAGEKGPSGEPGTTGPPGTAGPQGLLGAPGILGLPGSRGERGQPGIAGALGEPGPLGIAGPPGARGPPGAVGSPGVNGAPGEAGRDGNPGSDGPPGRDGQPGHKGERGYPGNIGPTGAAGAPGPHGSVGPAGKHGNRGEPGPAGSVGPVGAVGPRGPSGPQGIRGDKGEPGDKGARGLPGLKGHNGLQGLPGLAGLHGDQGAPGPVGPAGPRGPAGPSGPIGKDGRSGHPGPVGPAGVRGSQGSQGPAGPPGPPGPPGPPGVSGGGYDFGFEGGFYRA

B1: GroEL protein of Leptospira interrogans (recombinant, His-tagged) (natural protein, UniProt P61438 1-546, looked up)
chain: MAKDIEYNETARRKLLEGVNKLANAVKVTLGPKGRNVVIDKKFGAPTITKDGVTVAKEIELEDPLENMGAQMVKEVSTKTNDVAGDGTTTATILAQSIINEGLKNVTAGANPMSLKKGIDKAVTAAVESIQKRAVKIENKKDIANVASISANNDNTIGNLIADAMDKVGKDGVITVEEAKSIETTLDVVEGMQFDRGYISPYMVTDAESMVATLNDPFILIYDKKISSMKDLIHILEKVAQAGKPLVIISEEVEGEALATIVVNTLRKTISCVAVKAPGFGDRRKSMLEDIAILTGGQVISEDLGMKLENTTLQMLGRANKVTVDKENTTIIEGKGQTKEIQGRIGQIKKQIEDTTSEYDREKLQERLAKLAGGVAVIHVGAATEVEMKEKKARVEDALSATRAAVEEGIVPGGGLTLLKAQEAVGSLKLDGDEATGAKIIFRALEEPIRMITSNAGLEGSVIVEHAKAKKGNEGFNALTMVWEDMIQAGVVDPAKVVRSALQNAASIGSMILTTEVTITDKPDKDAPNPMAGMGGGGMGGMGGMM
notes: GroEL (chaperonin 60, HSP60) of L. interrogans serovar Copenhageni strain Fiocruz L1-130, GenBank AAS69936.1, 60 kDa; Cloned BamHI/HindIII into the vector pAE; as far as I recall pAE adds an N-terminal His6 tag; also called chaperonin 60; Cpn60; source: LPS removed on Detoxi-Gel
Consider B1, for which the Kd in assay [1] turned out to be 6 ± 1 nM; in assay [2], 115 ± 12 nM; in assay [3], 23 ± 3 nM.

B2: truncated form of leptospiral immunoglobulin-like protein B (LigBC, amino acids 631-1156) (domain or fragment)
chain: AEIKNTSGSKGITNTLTPGSSEISAALGSIKSSKVILKVTPAQLISIAVTPINPSVAKGLIRQFKATGTYTDHSVQDVTALATWSSSNPGKAMVNNVTGSVTTVATGNTNIKATIDSISGSSVLNVTPALLTSIEITPTINSITHGLTKQFKATGIFSDKSTQNLTQLVTWISSDPSKIEIENTSGKKGIATASKLGSSNIKAVYKFIQSSPIPITVTDLKLKSITISPSSSSIAKGLTQQFKAIGTFIDGSEQEITNLVTWYSSKSDVAPINNAANAKGLATALSIGSSNISAIYNSISSNKINFNVSAATLDSIKINPVNNNIAKGLTQQYTALGVYSDSTIQDISDSVTWSSSNSDSISISNSTETKGKATALQIGNSKITATYNSISENIDITVSAATLSSISISPINTNINATVSKQFFAVGTYSDGTKADLTSSVTWSSSNKSQAKVSNASKTKGLVTGIASGNSIITATYGSVSGNTILTVNKTDTIAPTVQSVVSLSPTTIQVVYSESINNKEALDLS
notes: leptospiral immunoglobulin-like protein B (LigB), GenBank AAS69085, amino acids 631-1156, 56 kDa; half of immunoglobulin-like repeat 7 plus domains 8 to 12; source: LPS removed on Detoxi-Gel
Regarding B2, the Kd is 4 ± 1 nM in assay [4]; 8 ± 2 nM in assay [5]; 7 ± 1 nM in assay [1]; 41 ± 3 nM in assay [2]; 4 ± 1 nM in assay [3].

The values above are taken from PMC8011160, “GroEL protein of the Leptospira spp. interacts with host proteins and induces cytokines secretion on macrophages” (BMC Microbiology, 2021).
